How the values were obtained:
[1] = target: CD22 on CD22-positive Raji or Ramos cells (human) (UniProt P20273); experiment: flow cytometry on CD22-positive Raji cells
[2] = target: CD33 on CD33-positive HL-60 cells (human, UniProt P20138); experiment: flow cytometry on HL-60 cells, 50:50 mixture; competitor: mouse anti-human CD33 reference mAb
Protocol: Binding to CD33-positive HL-60 cells were studied by flow cytometry. The determination of EC₅₀ based on the plotted curve gives an approximate value for the affinity.
The mAb or conjugate to be analyzed was prepared fresh form frozen stock by shifting the storage buffer to PBS, kept at 4° C., and used within a few days after preparation. […] The secondary antibody reagent was prepared at 0.015 mg/mL in PBS, supplemented with 0.1% BSA. The mAb stock was diluted in 10-fold dilution steps, starting from 5 mg/mL. An isotype control mAb (trastuzumab) was prepared accordingly. 20 uL from each dilution step of the anti-human CD33 mAb was added to wells containing HL-60 cells. After incubation for 1 h at 4° C. the cells were spun down and washed three times with 200 μl cold PBS, supplemented with 0.1% BSA. A solution containing 4% goat serum was added as a blocking agent, and incubated for 15 minutes. 20 μl from the secondary antibody reagent was subsequently added to each well, before incubation for 30 min at 4° C. in the dark.
The cells were washed twice, as described above, and re-suspended in 200 μL PBS, supplemented with 0.1% BSA. All samples were analysed in 96-well round or conical bottom plates. Fluorescent signals were recorded on a Beckham Coulter Cell lab Quant SC flow cytometer (Beckman Coulter; CA, USA). […]

| EC50 [1] | fold less antibody bound [2] | Molecule |
| --- | --- | --- |
| 9 nM | – | AGC1100 (anti-CD22 monoclonal antibody hLL2, also called epratuzumab) |
| 6 nM | – | AGC1115 (AGC1100 conjugated to the water soluble chelator AGC0015) (antibody, INN chains, looked up, V domains shown, conjugated to chelator AGC0015) VH: QVQLVQSGAEVKKPGSSVKVSCKASGYTFTSYWLHWVRQAPGQGLEWIGYINPRNDYTEYNQNFKDKATITADESTNTAYMELSSLRSEDTAFYFCARRDITTFYWGQGTTVTVSS VL: DIQLTQSPSSLSASVGDRVTMSCKSSQSVLYSANHKNYLAWYQQKPGKAPKLLIYWASTRESGVPSRFSGSGSGTDFTFTISSLQPEDIATYYCHQYLSSWTFGGGTKLEIK |
| – | ~0.7 fold | AGC0700 (anti-CD33 monoclonal antibody, generated from the HuM195 template) (antibody, V domains shown) VH: QVQLVQSGAEVKKPGSSVKVSCKASGYTFTDYNMHWVRQAPGQGLEWIGYIYPYNGGTGYNQKFKSKATITADESTNTAYMELSSLRSEDTAVYYCARGRPAMDYWGQGTLVTVSS VL: DIQMTQSPSSLSASVGDRVTITCRASESVDNYGISFMNWFQQKPGKAPKLLIYAASNQGSGVPSRFSGSGSGTDFTLTISSLQPDDFATYYCQQSKEVPWTFGQGTKVEIKR |

Reference: patent publication US20150110817A1, “RADIO-PHARMACEUTICAL COMPLEXES” (published 2015)
